Target: β2AR truncated after amino acid 365 (β2AR-365) having an amino terminal Flag epitope tag, native, agonist-bound or unliganded (human) (UniProt P07550)
Test: cell-based or functional assay

## Gs heterotrimer
  High affinity state Ki of (-)-isoproterenol, [3H]-DHA competition binding, β2AR in HDL particles + Gs (β2AR alone: 107.5): 1.07 nM
  fold increase of the affinity of isoproterenol: 100 fold
